Experiment: yeast display, Sf9 membrane polyspecificity reagent, FACS + sequencing; frameworks hold sequencing errors
Procedure, shortened: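 A nanobody's polyreactivity label depends on the gate it was sorted from. Yeast display cells were stained with 10% biotinylated, detergent-solubilized Sf9 membrane reagent for 1 hour at 4 °C, enriched on streptavidin microbeads and sorted by FACS. The low and high (top ~1%) gates were set on anti-HA fluorescence for expression and streptavidin fluorescence for reagent binding.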

Sequence	polyreactivity (PSR sort gate)
QVQLVESGGGLVQAGGSLRLSCAASGRIFRDYDMGWYRKAPGKEWELVAAITYRGGSTYYADSVKGRFTISRDNAKNTVYLQINSLKPEDTAVYYCAAGSRSPHWYTRELDYWVQGTQVTVSS	low polyreactivity
QVQLVESGGGLVQAGGSLRLSCAASGSTFRVYAMGWYRQAPGKERELVAAISGSGGSTYYADSVKGRFTISRDNAKNTVYLQMNSLKPEDTAVYYCAGRSWYTEYYWGQGTQVTVSS	high polyreactivity
QVQVVESGGGLLQAGVSLRLSCAASGRTFSKYDMGLYRQPPGKERELVAAITRTGSSTYYADSVKGRFTISRDNAKNTVYLQMNSLKPEDTAVYYCAADRYLRYSGSSSDYGYWVQGTQVTVSS	low polyreactivity
QVQLVESGGGLVQAGGSLRLSCAASGGIFKWYDMGWYRQAPGKEREFVAAITWSGGSTYYADSVKGRFTISRDNAKNTVYLQMNSLKPEVTAVYYCNVDWYPRGPHTVVFYDVSPFDYWGQGTQVTVSS	high polyreactivity
QVQLVESGGGLVQAGGSLRISCAASGSTFYHNVMGWYRPAPGKERELVASIDTGDSTNYADSVKGRFTISLDNAKNTVYLQMNSLKPEDTAVYYCNADSYPALNKRGYDYWGQGTQVTVSA	low polyreactivity
QVQLVESGGGLVQAGGSLRISCAASGIIFALYAMGWYRQAPGKERELVAAISWSGDRTYYADSVKGRFTISRDNAKNTVYLQMNSLKPEDTAVYYCAADDYTADAVQRFYYWGQGTQVTVSS	low polyreactivity
QVQLVESGGGLVQAGGSLRLSCASSGRIFYYYAMGWYRQAPGKEREFVARNRSSGGSTYADSVKGRFTISRDNAKNTVYLQMNSLKPEDTAVYYCARDGYTAVEYDYWGQGTQVTVSS	low polyreactivity
QVQLVESGGGLVQAGGSLRLSCAASGLTFYGYVMGWYRQAPGKEWELVASISRSGGRTYYADSVKGRFTISRDNAKNTVFLQMNSLKPEDTAVYYCAKYLSRQSGDGEYDYWGQGTQVTVSS	low polyreactivity
QVQLVESGGGLVQAGGSLRLSCAASGSTFIDYAMGWYRQAPGKERELVAAITNGGNTKYADSVKGRFTISRDNAKNTVYLQMNSLKPEDTAVYYCAREPSIFTPSYDYWGQGTQVNVSS	low polyreactivity
QVQLVESGGGLVQAGGSLRLSCAASGRIFWGYAMGWYRQAPGKERELVAAISSGGSTNYADSVKGRFTISRDNAKNTVYLQMNSLKPEDTAVYYCAKDHAYTSAPHQYASEYYYWGQGTQVTVSS	low polyreactivity
QVQLVESGGGIVQAGGSLRLSCAASGRISAYNAMGWYRQAPGKERELVAAITYDGGSTYYADSVKGRFTISRDNAKNTVYLHMNSLKPEDTAVYYCNAGADSVSFRDGGITTYDYWGQGTQVTVSS	low polyreactivity
QVQLVESGGGLVQAGGSLRLSCAASGYIFYVYAMGWYRQAPGKERELVAAINSGDITYYADSVKGRFTISRDNAKNTVYLQMNSLKPEDTAVYYCATVLILIYDYWGQGTQVTVSS	low polyreactivity
QVQLVESGGRLDQAGGSLRLSCAASGSILSTYAMGWYRQPPVKERELVASISSNAGSTYYADSVKGRFTISLDNAKNTVSLQMNSLKPEDTAVYYCNKVYGGGTYDYWGQGTQVTVSS	low polyreactivity
QVQLVESGGGLVQAGGSLRLSCAASGFIFRYYAMGRYRPAPGKERELVAAISKRGGGTYYADSVKGRFTISRDNAKNTVYLQMNSLKPEDTAVYYCKKDGGYGTGSSREYDSWGQGTQVTVSS	high polyreactivity
QVQLVESGGGLVQAGGSLRLTCAASVSTFSRYAMGWYRQAPGKERELVAAISWRGGRTYYADSVKGRFTISRDNAKNTVYLQMNSLKPEDTAVYYCNAVSSFTSPRYDYWGQGTQVTVSS	high polyreactivity
QVQLVESGGGLVQAGGSLRLSCAASGSTFGVNAMGWYRQAPGKERELVAAIDADGGITYYADSVKGRFTISRDNAKNTVYLQMNILKPEDTAVYYCAARVAVYFSYGSPYWYEYDYWGQGTQVTVSS	low polyreactivity
QVQLVESGGGLVQAGGSLRLSCAASGRIIRSYAMVWYRQAPGKERELVAAISYSGGSTYYADSVKGRFTISRDNAKNTVYLQMNSLKPEDTAVYYCAALPGERKYIYYGYDYWGQGTQVTVSS	high polyreactivity
QVQLVESGGGLVQAGGSLRLSCAASGRTFRLNAMGWYRQAPGKERELVAAINTGGGTYYADSVKGRFTISRDNAKNSVYLQMNSLKPEDTAVYYCNACTRYGSFSYVKYDWGQGTQVTVSS	high polyreactivity
QVHLVESGGGLVQAGGSLRLSCAASGRIFSRNAMGRYRQAPGKERELVAAISSDGNTNYADSVKGFTISRDNAKNTVYLQMNSLKPESTAVYYCAARFGYTAYGYWGQGTQVTVSS	low polyreactivity
QVQLVESGGGLVQAGGSLRLSCAASGSIFWWNAMGWYRQAPGKERELVAGISRGGSTYYADSVKGRFTISRDNAKNTVYLQMNSLKPEDTAVYYCNADSDPVPAGYDYWGQGTQVTLSS	low polyreactivity
QVQLVESGGGLVQAGGSLRLSCAASGSIFDVNAMGWYRQAPGIERDLVAAISQRGTRTYYADSVKGRFTISRDNAKNTVYLQMNSLKPEDTAVYYCAARVPSVGNQSGYDYWGQGTQVTVSS	high polyreactivity
QVQLVESGGGLVQAGGSLRLSCAASMGWYRQAPGKERELVAITRTTRTYYADSVKGRFTISRDNAKNTVYLQMNSLKPEDTAVYYCAAPNGPSPYWYNYWGQGTQVTVSS	low polyreactivity

Sequence	polyreactivity (PSR sort gate)
QVQLVESGGGLVQAGGSLRLSCAASGSTFRRYAMGWYRQAPGKERELVAAISWSGGSTYYADSVKGRFTISRDNAKNTVYLQMNSLKPEDTAVYYCAARGVTSYWQDYDYWGQGTQVTVSS	low polyreactivity
QVQLVESGGGLVQAGGSLRLSCAASGITIVNYVMGWYRQAPGKERELVAAISIGGGTYYADSVKGRFTISRDNEKNTVYLQMNSLKPEDTAVYYCNASYGGLSFYIGVYVTGYDYWGQGTQVTVSS	low polyreactivity
QVKLVESGGGLVQAGGSLRLSCAASGSIFRYYAMGWYRQAPGKERELVAAMTASGGRTHYADSVKGRFTISRDNAKNTVYLQMNSLKLEDTAVYYCAADLYYAWYWKQHYDYCGQGTQVTVSS	high polyreactivity
QVQLVESGGGLVQAGGSLRLSCAASGRIFTGYDMGWYRQAPGKERELVAAISRGGSTNYADSVKGRFTISRDNAKNTVYLQMNSLKPEDTAVYYCADGVHWDRGDYWVQGTQVTVSS	low polyreactivity
QVQLVESGGGLVPAGGSLRLSCAASGFIFHGYAIGWYREAPGKEMELVAAISGTGGSTYYADSVKGRFTISRDNAKNTVYLQMNSLKPEDTAVYYCNARRVRSDRRGGDYWGQGTQVTVSS	high polyreactivity
QVQLVESGGGLVQAGGSLRLSFAASGRIFDVYAMGRYRQAPGKERELVAAITWSGGRTYYADSVKGRFTLSRDNAKNTVYLQMNSLKPEDTAVYYCAAEKPYVRGYLGTYDYWGQGTQVTVSS	low polyreactivity
QVQLVESGGGLVQAGGSLRLSCAASGSTSGRNVMGWYRQSPGKERELVAAISSRGGSTYYADSVKGRFTISRDNEKNTVYLQMNSLKPEDTAVYYCASRYGAYSGYDYWGQGTQVTVSS	high polyreactivity
QVQLVESGGGLVQAGGSLRLSCAASGFTLFWNDMGWYRQAPGKERELVAAITSGDDTYADSVKGRFTISRDNAKNTVYLQMNSLKPEDTAVYYCNKDDPLRNVAQVILYEFYYWGQGTQVTVSS	low polyreactivity
QVQLVESGGGLVQAGGSLRLSCAASGLTFIEYAKGWYRQAPGKERELVAAISSGGRTYYADSVKGRFTISRDNAKNTVYLQMNSLKPEDTAVYYCNARGYRRWYNYWGQGTQVTVSS	high polyreactivity
QVQLVESGGGLVQAGGSLRLSCAASGIIFVKNAMGWYRQAPGKERELVASISGSGGRTYYADSVKGRFTISRDNAKNTVYLQMKSLKPEDTAVYYCNTLLAPHARKARRHDYWGQGTQVTVSS	low polyreactivity
QVQLLESGGGLVQAGASLRLSCAASGSIFLPNAMGWSRQAPGKERELVAAISWSGGSTYADSVKGRITISRDNAKNTVYLQMNILKPEDTAFYFCAADDGFTPRDLYVCYDYWGQGTQVTVSS	low polyreactivity
QVQLVESGGGLVQAGGSLRLSCAASGRTFGTYAMGWYRQAPGKERELVAAISRRGGTTYYADSVKGRFTISRDNAKNTVYLQMNSLKPEDTAVYYCNVYRVSFSVVPLGYWGQGTQVTVSS	high polyreactivity
QVHLVESGGPLVQAGGSLRLSCAASGRIFQINAMVWYRQAPGKERELVAGITGSGGSTDYADSVKGRFTISRDKSKNTVYLQMNSLKPEDTAVYYCAADTYTDGYDYWGQGTQVTVSS	low polyreactivity
QVQLVESGGGLVQAGGSLRLTCAASGFIFKFYAMGWSRQAPGKEREVVAAITSSGGSTYYADSVKGRFTISRDNAKNTVYLQMNSLKPEDTAVYYCAAQFPGVYYYIYDYWGQGTQVTVSS	high polyreactivity
QVQLVESGGGLVQAGGSLRLSCAASGSTFWRNALGWYRQAPGKERELVAAITDSGDSTYYADSVKGRFTISRDTAKNTVYLQMHSLKPEDTAVYYCAVDKLSLYGWDEYWGQGTQVTVSS	low polyreactivity
QVQHVESGGGLVQAGGSLRLSCAASGGTFVWYAMGWYRQAPGKERELVAAISSSGGRTYYADSVKGRFTISRDNAKNTVYLQMNSLKPEDTAVYYCNAAPYYVLYLLWSSNTYDYWGQGTQVTVSS	high polyreactivity
QVQLVESGGGLVQAGGSLRLSCAASGRIFRYYAMGWYRQAPGKERELVAAISSGGRTYYADSVKGRFPISRDNEKNTVYLQMNSLKPEDTAVYYCNTYTYAGYNYWGQGTQVTVSS	high polyreactivity
QVQLVESGGGLVQAGGRLRLSCAASGSTFSYYAMGWYRQAPGKERELVAAISSRGSSTYYADSVKGRFTISRDNAKNTVYLQMNSLKPQATAVYYCAAVRYSPTKFNYWGQGTQVTVSS	high polyreactivity
QVQLVESGGGLVQAGGSLRLSCAASGSIFGNNAMGWYRQAPGKERELVAGINYSGGRTYYADSVKGRFTISRDNAKNTVYLQMNSLKPEDTAVYYCAADGHRQVGWWRFEYGYWGQGTQVTVSS	low polyreactivity
QVQLVESGGGLVQAGGSLRLSCAASGFTFERYAMGWYRPAPGKDRELVAAITGSGGSTYYADSVKGRFTIARDNATNTVYLQMNSLKPEDTAFYYCARDSSLFRLRDYWGQGTQVTVSS	low polyreactivity
QFQLVESGGGLVQAGGSLRLSCAASGFIFGYNAMGWYRQAPGKERELVAPITYNGASTNYADSVKGRFTISRDNAKNTVYLQMNSLKPEDTAVYYCAADYGPYDPEDDWGQGTQVTVSS	low polyreactivity

From the nanobody polyreactivity screen of Harvey et al. (2022)
